Article doi:10.1101/431494

How the values were obtained:
[1] = target: Haliangium ochraceum encapsulated ferritin as crystallised (PDB 5N5F) (Haliangium ochraceum) (UniProt D0LZ73); test: crystal structure
[2] = target: Haliangium ochraceum encapsulated ferritin, residues 1-98, C-terminal hexa-histidine tagged variant (Haliangium ochraceum) (UniProt D0LZ73); test: SDS-PAGE

Row | stoichiometry N [1] | stoichiometry N [2] | Substance
1 | 10 |  | Haliangium ochraceum encapsulated ferritin as crystallised (PDB 5N5F) (from UniProt D0LZ73 1-98) (domain or fragment)
2 |  | 2 | Haliangium ochraceum encapsulated ferritin, residues 1-98, C-terminal hexa-histidine tagged variant (from UniProt D0LZ73 1-98) (domain or fragment)
